Source: patent US12466859B2, “Desmoglein 2 (DSG2) binding proteins and uses therefor” (UNIVERSITY OF WASHINGTON THROUGH ITS CENTER FOR …, priority 2013, dated 2025)
Positions count from the first letter of the chain named. Entries after “also recorded” stand apart in the source; their conditions may differ.

Columns and labels:
A549 xenograft tumors = assay: Enhancement of irinotecan therapy in A549 xenograft tumors; format: in vivo, CB17-SCID/beige mice; settings: 2 mg/kg i.v. one hour before irinotecan 37.5 mg/kg i.v.; tumor volume
Description: FIG. 5A-5B. Correlation of reduced DSG2 binding with the ability to open epithelial junctions. FIG. 5A) Transepithelial electrical resistance (TEER) measured on polarized colon cancer T84 cells. Cells were cultured in transwell chambers until the TEER was constant, i.e. tight junctions had formed. A total of 5 μg of dimeric Ad3 fiber knobs in PBS was then added for 1 hour to the apical chamber. TEER was measured at the indicated time points. N=6. For time points 1.5 and 4 hours the difference between JO-1 vs D261N and N186D was significant (p<0.01). The arrows indicate the addition and removal of Ad3 fiber knobs. FIG. 5B) Enhancement of irinotecan therapy. A total of 4×10^6 A549 cells were injected subcutaneously into CB17-SCID/beige mice. Once the tumor reached a volume of ˜100 mm^3 (day 15 after implantation), the mice were injected intravenously with 2 mg/kg JO-1, E299V, N186D, or PBS, followed by an intravenous injection of irinotecan (37.5 mg/kg) one hour later. The treatment was repeated on day 25. N=5. […] The difference between “irinotecan” vs “JO-1+irinotecan” was significant (p<0.01) from day 20 on.
(§1) FIG. 10A-10C. Combination of affinity-enhanced JO-1 versions with chemotherapy. FIG. 10A) Enhancement of irinotecan (I) therapy. The experimental setting was the same as in FIG. 5B. […] N=5. […] Mammary fat pad tumors were established from primary ovarian cancer ovc316 cells. Treatment was started when tumors reached a volume of 100 mm^3. Mice were injected intravenously with 2 mg/kg JO-1 or with 0.5 mg/kg JO-4, followed by an intravenous injection of PEGylated liposomal doxorubicin (PLD) (1 mg/kg) one hour later. Treatment was repeated weekly. […] A total of 4×10^6 TNBC MDA-MB-231 cells were injected into the mammary fat pad of CB17 SCID-beige mice. JO-4 (2 mg/kg) was intravenously injected 1 hour before the application of cetuximab (C) (10 mg/kg, i.p.) and nab-paclitaxel (nab-P) (5 mg/kg, i.v.). Treatment was given weekly. N=10 P<0.01 at day 25 for nab-P+C vs JO-4+nab-P+C.
A549, MDA-MB-231, and ovc316 xenograft tumors were established by injection of the corresponding tumor cells into the mammary fat pad (1:1 with Matrigel) of CB17 mice. TC1-DSG2 tumors were established by subcutaneous injection of TC1-DSG2 cells into DSG2 transgenic mice. JO-0, JO-1, JO-2, or JO-4 were intravenously injected one hour before the application of chemotherapeutic drugs: Irinotecan/Camptosar™ (Pfizer Inc., Groton, CT), PEGylated liposomal doxorubicin/Lipodox™ (Sun Pharmaceuticals IN, India), cetuximab/Erbitux™ (ImClone, Somerville, NJ), nanoparticle albumin conjugated paclitaxel/Abraxane” (Abraxis Biosciences, Summit, NJ). Tumor volumes were measured three times a week. Each treatment group consisted of a minimum of 5 mice.

ovc316 xenograft tumors = assay: Enhancement of PLD therapy in ovc316 ovarian cancer xenograft tumors; format: in vivo, CB17 mice; settings: weekly
Description: as §1
A549, MDA-MB-231, and ovc316 xenograft tumors were established by injection of the corresponding tumor cells into the mammary fat pad (1:1 with Matrigel) of CB17 mice. TC1-DSG2 tumors were established by subcutaneous injection of TC1-DSG2 cells into DSG2 transgenic mice. […] Tumor volumes were measured three times a week. […]

[1] = Serum clearance of JO-1 and JO-4 by ELISA; format: in vivo, hDSG2 transgenic mice; settings: 2 mg/kg i.v.; mice with TC1-hDSG2 tumors
Description: (§2) FIG. 11A-11C. Pharmacokinetics, toxicity, and immunogenicity of JO-4. FIG. 11A) Serum clearance of JO-1 and JO-4. hDSG2 transgenic mice with subcutaneous TC1-hDSG2 tumors (˜600 mm^3) were intravenously injected with JO-1 or JO-4 (2 mg/kg) and serum samples were analyzed for by ELISA. N=3. Note that the y-axis has a log scale. FIG. 11B1) Lymphocyte and FIG. 11B2) platelet counts in hDSG2/TC1-hDSG2 transgenic mice after JO-1 or JO-4 injection. N=3. FIG. 11C) Therapy studies in immunocompetent hDSG2 transgenic mice with TC1-hDSG2 tumors. When tumors reached a volume of ˜80 mm^3, JO-1 or JO-4 (2 mg/kg) or PBS was injected intravenously followed one hour later by PLD/Doxil (i.v. 1.5 mg/kg). Treatment was repeated as indicated by arrows. Tumors were then allowed to re-grow for about two weeks. From day 15 on serum anti-JO-1/J)—4 antibodies were detectable by ELISA. Two more treatment cycles were performed at day 28 and day 35. […] The difference between JO-1/PLD vs JO-4/PLD is significant from day 31 on. N=10.
Two of the affinity enhanced version of JO-1, Y293D and V250F were analyzed in in vivo assay. We called these mutants JO-2 and JO-4, respectively. The first study was performed in a xenograft model derived from A549 cells similar to the study described for FIG. 5B. […] We also analyzed hematological parameters after i.v. JO-1 and JO-4 injection.

[2] = Blood chemistry and blood cell counts after i.v. injection; format: in vivo, hDSG2 transgenic mice; settings: for Blood chemistry / Lymphocyte and platelet number after injection: after i.v. injection, 2 mg/kg
Description: as §2
Two of the affinity enhanced version of JO-1, Y293D and V250F were analyzed in in vivo assay. We called these mutants JO-2 and JO-4, respectively. The first study was performed in a xenograft model derived from A549 cells similar to the study described for FIG. 5B. […] Additional studies were performed in xenograft tumors derived from ovc316 cells (30, 32). Ovc316 cells are Her2/neu positive epithelial tumor cells derived from an ovarian cancer biopsy. These cells can undergo EMT and the reverse process, mesenchymal-to-epithelial-transition (MET), under specific conditions in vitro and in vivo. A subfraction of ovc316 cells that is positive for Nanog, CD133, and E-cadherin is enriched for cancer stem cells, i.e. self-renewing cells with pluripotent potential and tumor forming ability (30). Ovc316 cells therefore closely model the heterogeneity and plasticity seen in tumors in situ. […] Finally, we tested JO-4 in a model for triple-negative breast cancer (TNBC). TNBC is characterized by a lack or minimal expression of estrogen receptor (ER), progesterone receptor (PR) and the absence of Her2/neu overexpression. TNBC accounts for 15% of all breast cancers. Overall survival is poor compared with that in patients who have other phenotypes. A characteristic feature of TNBC is high levels of DSG2 and epithelial junctions. Promising clinical results in the treatment of TNBS have been achieved with nanoparticle, albumin-conjugated paclitaxel (nab-paclitaxel/Abraxane™) alone or in combination with the EGFR-targeting mAb cetuximab/Erbitux™ (38). […] Because of its therapeutic relevance, we further studied JO-4 in an adequate mouse tumor model. […] These mice were subcutaneously implanted with syngeneic TC1-hDSG tumors. When tumors reached a volume of ˜600 mm^3, JO-1 or JO-4 was intravenously injected for safety and efficacy studies. […] After one hour post-injection JO-1 and JO-4 concentration reached a plateau with −100 ng/ml. We also analyzed hematological parameters after i.v. JO-1 and JO-4 injection.

B1: JO-1: dimeric protein that contains the wild-type Ad3 fiber knob and a self-dimerization domain (SEQ ID NO:27) (protein, listed as Homo sapiens)
chain: MKVSALKEKVSALKEKVSALKEKVSALKEKVSALKEGSGGGSGGGSGGGSNSIALKNNTLWTGPKPEANCIIEYGKQNPDSKLTLILVKNGGIVNGYVTLMGASDYVNTLFKNKNVSINVELYFDATGHILPDSSSLKTDLELKYKQTADFSARGFMPSTTAYPFVLPNAGTHNENYIFGQCYYKASDGALFPLEVTVMLNKRLPDSRTSYVMTFLWSLNAGLAPETTQATLITSPFTFSYIREDD
modifications: dimer
Q: What does the source list for B1?
A: Enhancement of irinotecan therapy (A549 xenograft tumors): enhanced irinotecan therapy; also recorded: significant; Enhancement of PLD therapy (ovc316 xenograft tumors; 2 mg/kg i.v. one hour before PLD 1 mg/kg): significantly increased the treatment efficiency; Decline of serum concentration within an hour after injection [1]: declined more than one order of magnitude; Blood chemistry [2]: did not show abnormal changes; Lymphocyte and platelet number after injection [2]: decreased early after injection

B2: JO-4 (protein)
chain: B1 chain with Y177F
Q: What does the source list for B2?
A: Enhancement of irinotecan therapy (A549 xenograft tumors): significantly more than JO-1; also recorded: significantly more efficient than JO-2; Enhancement of PLD therapy (ovc316 xenograft tumors; 0.5 mg/kg i.v. one hour before PLD 1 mg/kg): enhances PLD therapy; Decline of serum concentration within an hour after injection [1]: declined more than one order of magnitude; also recorded: significantly greater; also recorded: rapidly decrease; Lymphocyte and platelet counts at nadir compared with JO-1 ([2]; 24 hours p.i., p<0.01): significantly lower numbers; Blood chemistry [2]: did not show abnormal changes; Lymphocyte and platelet number after injection [2]: decreased early after injection; also recorded: transient reduction; Return of lymphocyte and platelet counts to normal levels ([2]; compared with JO-1 treated animals): faster
